From paper PMC10397247
Blank lines part the entries; values can stand above or below the binder they belong to.

Experiments:
[1] = biological target: T1, P4S-Cys; assay: two-hybrid library CCNG1; settings: mean of both orientations;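 further: natural log of median RNA to DNA barcode read ratio; higher means stronger binding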
T1 chain: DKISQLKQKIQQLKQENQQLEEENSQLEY

[2] = biological target: T2, 4H344-bH; assay: two-hybrid library CCNG1;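 further: natural log of median RNA to DNA barcode read ratio; higher means stronger binding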
T2 chain: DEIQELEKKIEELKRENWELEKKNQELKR

[3] = biological target: T3, 4H2568-bH; assay: two-hybrid library CCNG1;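 further: natural log of median RNA to DNA barcode read ratio; higher means stronger binding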
T3 chain: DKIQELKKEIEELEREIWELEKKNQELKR

[4] = biological target: T4, 4H2619-bH; assay: two-hybrid library CCNG1;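 further: natural log of median RNA to DNA barcode read ratio; higher means stronger binding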
T4 chain: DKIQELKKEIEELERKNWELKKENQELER

[5] = biological target: T5, 4H2745-bH; assay: two-hybrid library CCNG1
T5 chain: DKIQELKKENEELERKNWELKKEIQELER

[6] = biological target: T6, 4H3961-bH; assay: two-hybrid library CCNG1; settings: mean of both orientations
T6 chain: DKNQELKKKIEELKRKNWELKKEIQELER

[7] = biological target: T7, 4H363-bH; assay: two-hybrid library CCNG1
T7 chain: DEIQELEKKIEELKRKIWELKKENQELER

[8] = biological target: T8, 4H470-bH; assay: two-hybrid library CCNG1
T8 chain: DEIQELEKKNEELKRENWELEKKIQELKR

[9] = biological target: T9, 4H3907-bH; assay: two-hybrid library CCNG1
T9 chain: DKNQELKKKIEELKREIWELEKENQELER

[10] = biological target: T10, 4H1046-bH; assay: two-hybrid library CCNG1; settings: mean of both orientations
T10 chain: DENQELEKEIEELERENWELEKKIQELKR

[11] = biological target: T11, 4H1072-bH; assay: two-hybrid library CCNG1
T11 chain: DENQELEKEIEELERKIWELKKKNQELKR

[12] = biological target: T12, Core_NINN-es_KEKK; assay: two-hybrid library CCmax; settings: mean of both orientations
T12 chain: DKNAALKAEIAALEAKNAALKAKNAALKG

[13] = biological target: T13, P2-AA-1HAA-T; assay: two-hybrid library CCmax; settings: mean of both orientations
T13 chain: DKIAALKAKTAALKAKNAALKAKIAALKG

[14] = biological target: T14, P2-AA-1HAA-L; assay: two-hybrid library CCmax; settings: mean of both orientations
T14 chain: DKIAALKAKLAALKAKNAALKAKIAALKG

[15] = biological target: T15, P2-AA-1HAA-I; assay: two-hybrid library CCmax; settings: mean of both orientations
T15 chain: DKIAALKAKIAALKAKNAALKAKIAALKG

[16] = biological target: T16, P2-AA; assay: two-hybrid library CCmax; settings: mean of both orientations
T16 chain: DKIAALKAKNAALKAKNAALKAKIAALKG

[17] = biological target: T17, P2-AA-1HAA-K; assay: two-hybrid library CCmax; settings: mean of both orientations
T17 chain: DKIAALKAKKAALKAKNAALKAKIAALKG

[18] = biological target: T18, P2-AA-1HAA-D; assay: two-hybrid library CCmax; settings: mean of both orientations
T18 chain: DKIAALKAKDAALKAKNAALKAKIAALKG

[19] = biological target: T19, P2-AA-1HAA-R; assay: two-hybrid library CCmax; settings: mean of both orientations
T19 chain: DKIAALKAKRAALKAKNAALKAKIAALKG

[20] = biological target: T20, P2-AA-1HAA-S; assay: two-hybrid library CCmax; settings: mean of both orientations
T20 chain: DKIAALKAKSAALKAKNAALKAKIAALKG

[21] = biological target: T21, P5SH; assay: two-hybrid library CCNG1
T21 chain: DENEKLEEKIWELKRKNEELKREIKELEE

[22] = biological target: T22, P3SH; assay: two-hybrid library CCNG1
T22 chain: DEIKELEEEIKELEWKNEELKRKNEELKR

[23] = biological target: T23, P4SH; assay: two-hybrid library CCNG1
T23 chain: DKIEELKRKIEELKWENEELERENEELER

[24] = biological target: T24, P8SH; assay: two-hybrid library CCNG1
T24 chain: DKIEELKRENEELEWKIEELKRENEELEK

[25] = biological target: T25, P6SH; assay: two-hybrid library CCNG1
T25 chain: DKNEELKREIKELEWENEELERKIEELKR

[26] = biological target: T26, P7SH; assay: two-hybrid library CCNG1
T26 chain: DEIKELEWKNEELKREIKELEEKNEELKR

[27] = biological target: T27, 4H2438-bN; assay: two-hybrid library CCNG1
T27 chain: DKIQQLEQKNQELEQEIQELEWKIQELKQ

[28] = biological target: T28, 4H2223-bN; assay: two-hybrid library CCNG1
T28 chain: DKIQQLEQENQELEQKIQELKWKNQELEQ

[29] = biological target: T29, 4H2503-bN; assay: two-hybrid library CCNG1
T29 chain: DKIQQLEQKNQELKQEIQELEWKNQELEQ

[30] = biological target: T30, 4H2588-bN; assay: two-hybrid library CCNG1
T30 chain: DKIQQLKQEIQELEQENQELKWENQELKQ

[31] = biological target: T31, 4H3974-bA; assay: two-hybrid library CCNG1
T31 chain: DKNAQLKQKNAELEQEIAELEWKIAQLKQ

[32] = biological target: T32, 4H477-bN; assay: two-hybrid library CCNG1
T32 chain: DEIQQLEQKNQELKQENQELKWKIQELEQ

[33] = biological target: T33, 4H2839-bN; assay: two-hybrid library CCNG1
T33 chain: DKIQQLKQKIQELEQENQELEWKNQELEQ

[34] = biological target: T34, 4H2717-bN; assay: two-hybrid library CCNG1
T34 chain: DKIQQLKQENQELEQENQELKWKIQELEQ

[35] = biological target: T35, 4H319-bN; assay: two-hybrid library CCNG1
T35 chain: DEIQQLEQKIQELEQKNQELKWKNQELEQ

[36] = biological target: T36, 4H2692-bN; assay: two-hybrid library CCNG1
T36 chain: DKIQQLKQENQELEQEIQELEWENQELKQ

[37] = biological target: T37, 4H3057-bN; assay: two-hybrid library CCNG1
T37 chain: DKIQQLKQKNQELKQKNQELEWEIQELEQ

[38] = biological target: T38, 4H2915-bN; assay: two-hybrid library CCNG1
T38 chain: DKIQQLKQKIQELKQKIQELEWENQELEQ

[39] = biological target: T39, 4H2473-bN; assay: two-hybrid library CCNG1
T39 chain: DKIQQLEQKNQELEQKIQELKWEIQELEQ

[40] = biological target: T40, 4H40-bN; assay: two-hybrid library CCNG1
T40 chain: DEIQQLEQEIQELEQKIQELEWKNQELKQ

[41] = biological target: T41, 4H2134-bN; assay: two-hybrid library CCNG1
T41 chain: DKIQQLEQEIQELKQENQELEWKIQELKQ

[42] = biological target: T42, 4H3277-bN; assay: two-hybrid library CCNG1
T42 chain: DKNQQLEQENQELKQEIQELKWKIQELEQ

[43] = biological target: T43, 4H492-bN; assay: two-hybrid library CCNG1
T43 chain: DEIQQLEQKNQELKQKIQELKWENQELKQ

[44] = biological target: T44, 4H2143-bN; assay: two-hybrid library CCNG1
T44 chain: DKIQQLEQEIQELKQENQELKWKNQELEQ

[45] = biological target: T45, 4H182-bN; assay: two-hybrid library CCNG1
T45 chain: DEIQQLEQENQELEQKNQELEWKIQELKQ

[46] = biological target: T46, 4H348-bN; assay: two-hybrid library CCNG1
T46 chain: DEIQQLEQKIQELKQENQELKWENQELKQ

[47] = biological target: T47, 4H741-bN; assay: two-hybrid library CCNG1
T47 chain: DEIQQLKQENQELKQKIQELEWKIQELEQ

[48] = biological target: T48, 4H121-bN; assay: two-hybrid library CCNG1
T48 chain: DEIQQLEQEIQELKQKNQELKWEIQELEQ

[49] = biological target: T49, Core_NNIN-es_KEEE; assay: two-hybrid library CCmax
T49 chain: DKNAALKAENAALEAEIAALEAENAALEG

[50] = biological target: T50, Core_IINI-es_KKKE; assay: two-hybrid library CCmax; settings: mean of both orientations
T50 chain: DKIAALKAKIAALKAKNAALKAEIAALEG

[51] = biological target: T51, Core_NNNI-es_KKKE; assay: two-hybrid library CCmax; settings: mean of both orientations
T51 chain: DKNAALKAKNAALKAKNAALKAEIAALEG

[52] = biological target: T52, P2p; assay: two-hybrid library CCmax; settings: mean of both orientations
T52 chain: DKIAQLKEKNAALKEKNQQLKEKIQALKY

interaction score [2]: 1.33
interaction score [3]: 1.03
interaction score [4]: 0.439
interaction score [5]: 0.917
interaction score [6]: -0.386
interaction score [7]: -1.16
interaction score [8]: 0.405
interaction score [9]: -0.121
interaction score [10]: 0.287
interaction score [11]: -0.477
B2: 4H1046-bH (peptide)
chain: DENQELEKEIEELERENWELEKKIQELKR

interaction score [21]: 0.554
interaction score [22]: 0.764
interaction score [23]: 1.95
interaction score [24]: 0.525
interaction score [25]: 0.737
interaction score [26]: -0.109
B5: P3SH (peptide)
chain: DEIKELEEEIKELEWKNEELKRKNEELKR

interaction score [49]: 1.83
B7: Core_NNIN-es_EKKK (peptide)
chain: DENAALEAKNAALKAKIAALKAKNAALKG

Second part, the binder before the results:

B1: Cys-P3S (peptide)
chain: DEIQQLEEEISQLEQKNSQLKEKNQQLKY
interaction score [1]: 1.92

B3: Core_NINN-es_EKEE (peptide)
chain: DENAALEAKIAALKAENAALEAENAALEG
interaction score [12]: 1.5

B4: P1-AA-1HAA-D (peptide)
chain: DEIAALEAEDAALEAENAALEAEIAALEG
interaction score [13]: 1.59
interaction score [14]: 2.16
interaction score [15]: 1.89
interaction score [16]: 2.18
interaction score [17]: 1.56
interaction score [18]: 0.443
interaction score [19]: 1.66
interaction score [20]: 1.57

B6: 4H121-bN (peptide)
chain: DEIQQLEQEIQELKQKNQELKWEIQELEQ
interaction score [27]: 1.48
interaction score [28]: -0.986
interaction score [29]: -1.29
interaction score [30]: -0.5
interaction score [31]: 1.19
interaction score [32]: -1.35
interaction score [33]: -0.184
interaction score [34]: -0.302
interaction score [35]: -1.04
interaction score [36]: -1.02
interaction score [37]: -1.3
interaction score [38]: -0.211
interaction score [39]: -0.436
interaction score [40]: -0.563
interaction score [41]: 1.52
interaction score [42]: -1.33
interaction score [43]: -1.42
interaction score [44]: -0.718
interaction score [45]: -0.748
interaction score [46]: -0.398
interaction score [47]: -1.39
interaction score [48]: -0.707

B8: Core_IINI-es_EEEK (peptide)
chain: DEIAALEAEIAALEAENAALEAKIAALKG
interaction score [50]: 2.3

B9: Core_NNNI-es_EEEK (peptide)
chain: DENAALEAENAALEAENAALEAKIAALKG
interaction score [51]: 2.16

B10: P1p (peptide)
chain: DEIQALEEENAQLEQENAALEEEIAQLEY
interaction score [52]: 1.64
